Assay results as given in publication PMC10354202 (2023).

Tests used:
Experiment in all cases: magnetic tweezers
talin VBS [1] = molecular target: T1, talin VBS (UniProt Q9Y490, talin stretched at low force (up to ~9-10 pN))
T1 chain: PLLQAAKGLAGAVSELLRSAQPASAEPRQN

talin VBS [2] = molecular target: T2, talin VBS (UniProt Q9Y490, talin stretched above ~10 pN)
T2 chain: T1 chain

talin VBS [3] = molecular target: T3, talin VBS (UniProt Q9Y490, talin stretched at low force, matured complex)
T3 chain: T1 chain

B1: vinculin (protein)
chain: MPVFHTRTIESILEPVAQQISHLVIMHEEGEVDGKAIPDLTAPVAAVQAAVSNLVRVGKETVQTTEDQILKRDMPPAFIKVENACTKLVQAAQMLQSDPYSVPARDYLIDGSRGILSGTSDLLLTFDEAEVRKIIRVCKGILEYLTVAEVVETMEDLVTYTKNLGPGMTKMAKMIDERQQELTHQEHRVMLVNSMNTVKELLPVLISAMKIFVTTKNSKNQGIEEALKNRNFTVEKMSAEINEIIRVLQLTSWDEDAWASKDTEAMKRALASIDSKLNQAKGWLRDPSASPGDAGEQAIRQILDEAGKVGELCAGKERREILGTCKMLGQMTDQVADLRARGQGSSPVAMQKAQQVSQGLDVLTAKVENAARKLEAMTNSKQSIAKKIDAAQNWLADPNGGPEGEEQIRGALAEARKIAELCDDPKERDDILRSLGEISALTSKLADLRRQGKGDSPEARALAKQVATALQNLQTKTNRAVANSRPAKAAVHLEGKIEQAQRWIDNPTVDDRGVGQAAIRGLVAEGHRLANVMMGPYRQDLLAKCDRVDQLTAQLADLAARGEGESPQARALASQLQDSLKDLKARMQEAMTQEVSDVFSDTTTPIKLLAVAATAPPDAPNREEVFDERAANFENHSGKLGATAEKAAAVGTANKSTVEGIQASVKTARELTPQVVSAARILLRNPGNQAAYEHFETMKNQWIDNVEKMTGLVDEAIDTKSLLDASEEAIKKDLDKCKVAMANIQPQMLVAGATSIARRANRILLVAKREVENSEDPKFREAVKAASDELSKTISPMVMDAKAVAGNISDPGLQKSFLDSGYRILGAVAKVREAFQPQEPDFPPPPPDLEQLRLTDELAPPKPPLPEGEVPPPRPPPPEEKDEEFPEQKAGEVINQPMMMAARQLHDEARKWSSKPGIPAAEVGIGVVAEADAADAAGFPVPPDMEDDYEPELLLMPSNQPVNQPILAAAQSLHREATKWSSKGNDIIAAAKRMALLMAEMSRLVRGGSGTKRALIQCAKDIAKASDEVTRLAKEVAKQCTDKRIRTNLLQVCERIPTISTQLKILSTVKATMLGRTNISDEESEQATEMLVHNAQNLMQSVKETVREAEAASIKIRTDAGFTLRWVRKTPWYQ
- Kd (talin VBS [1]): ~0.2 nM
- Kd (talin VBS [2]): ~5 nM
- Kd (talin VBS [3]): ~0.004 nM
